{
  "source": "patent US20250222112A1",
  "molecular_target": "soluble ectodomain from HSV-2 glycoprotein D (amino acids 26-331) containing a 6-histidine tag (herpes simplex virus 2 (HSV-2)) (UniProt Q69467)",
  "sequence (Q69467 26-331, tags left off)": "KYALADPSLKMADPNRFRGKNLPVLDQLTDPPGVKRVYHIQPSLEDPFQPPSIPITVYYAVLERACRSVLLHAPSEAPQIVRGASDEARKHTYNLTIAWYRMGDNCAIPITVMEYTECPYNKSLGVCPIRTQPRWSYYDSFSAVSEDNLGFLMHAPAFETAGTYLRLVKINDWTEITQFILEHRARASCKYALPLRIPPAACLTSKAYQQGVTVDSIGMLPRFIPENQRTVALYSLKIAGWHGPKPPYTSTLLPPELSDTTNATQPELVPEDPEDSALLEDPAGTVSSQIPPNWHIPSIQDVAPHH",
  "assay": "ELISA, gD-6H coated at 15 µg/ml, HSV8 in 5-fold dilutions from 10 µg/ml, anti-human IgG-HRP",
  "data": [
    {"substance": "human IgG1 monoclonal antibody HSV8", "values": [
      {"measurement": "lowest concentration with robust binding", "value": 3, "unit": "nM"}
    ]}
  ]
}
